Assay [1] concerns the target T1, human CCR8 (human, UniProt P51685 1-355). Put plainly: cell-based or functional assay.
Another assay has as its target T2, human CCR4 (human, UniProt P51679 1-360).
T2 construct: Expressed on cells for flow cytometry; also called hCCR4
T2 sequence: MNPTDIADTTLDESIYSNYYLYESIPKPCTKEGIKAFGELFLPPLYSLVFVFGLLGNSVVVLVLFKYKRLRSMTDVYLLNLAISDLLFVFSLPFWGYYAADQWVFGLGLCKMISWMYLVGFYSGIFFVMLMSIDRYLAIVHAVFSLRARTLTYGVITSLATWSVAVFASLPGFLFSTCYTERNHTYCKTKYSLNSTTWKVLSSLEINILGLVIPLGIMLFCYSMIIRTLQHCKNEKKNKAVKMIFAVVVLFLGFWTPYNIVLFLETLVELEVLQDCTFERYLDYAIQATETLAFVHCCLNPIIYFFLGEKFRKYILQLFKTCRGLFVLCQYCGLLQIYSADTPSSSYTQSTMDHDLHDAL
Description: flow cytometry on transiently transfected ExpiHEK293 cells.

Assay [2] deals with T1, human CCR8. Description: flow cytometry on transiently transfected ExpiHEK293 cells, 50 nM antibody. Here is the method: (§1) Briefly, purified antibodies (saturating concentration of 50 nM, FIG. 3A or concentration range from 100 nM, 3-fold dilution, FIGS. 3B-3C) were incubated with 1×10⁵ ExpiHEK293 cells transiently transfected with either human (SEQ ID NO:11; Uniprot/Swiss-Prot: P51685), mouse CCR8 (SEQ ID NO: 64; Uniprot/Swiss-Prot: P56484), or cynoCCR8 (SEQ ID NO: 65; Uniprot/Swiss-Prot: G7NYJ2) fused to GFP protein via cleavable linker, for 30 minutes at 4° C. After washing, secondary anti-human-AF647 antibody (Jackson ImmunoResearch; West Grove, PA) was incubated at 12 nM for 30 minutes in PBS. After washing, cell pellets were resuspended in 50 μL PBS and samples were analyzed by flow cytometry on iQue cytometer (Sartorious, Goettingen, Germany) using Forecyt software (Intellicyt, Ann Arbor, MI). Mean of fluorescence intensity for the specific signal among GFP+ cells are represented in FIGS. 3A-3C. Titration curve of cross-reactive antibodies against mouse CCR8 and cyno CCR8 are presented in FIGS. 3B and 3C, respectively.
In general terms: In flow cytometry, cells or beads pass a laser one at a time.

The target in assay [3] is T3, mouse CCR8 (mouse, UniProt P56484 1-353).
T3 construct: Transiently expressed on ExpiHEK293 cells, fused to GFP via cleavable linker
T3 sequence: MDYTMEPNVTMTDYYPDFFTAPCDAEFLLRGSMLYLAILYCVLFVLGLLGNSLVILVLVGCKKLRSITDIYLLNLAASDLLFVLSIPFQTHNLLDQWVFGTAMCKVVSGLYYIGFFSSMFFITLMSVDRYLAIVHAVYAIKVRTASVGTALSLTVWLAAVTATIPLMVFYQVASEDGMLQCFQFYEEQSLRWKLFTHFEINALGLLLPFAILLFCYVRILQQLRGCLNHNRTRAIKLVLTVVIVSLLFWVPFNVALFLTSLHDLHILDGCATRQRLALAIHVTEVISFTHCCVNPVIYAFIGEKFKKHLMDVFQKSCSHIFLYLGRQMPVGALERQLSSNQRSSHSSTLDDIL
Description: flow cytometry titration on ExpiHEK293 cells transiently expressing mouse CCR8. The method, then: as §1

Assay [4] addresses T3, mouse CCR8. Put plainly: flow cytometry on ExpiHEK293 cells transiently expressing mouse CCR8. Here is the method:
as §1

Assay [5] deals with T4, cynoCCR8 (cynomolgus, UniProt O97665 1-356 (rhesus entry)).
T4 construct: Transiently expressed on ExpiHEK293 cells, fused to GFP via cleavable linker; also called cynomolgus CCR8
Description: flow cytometry on ExpiHEK293 cells transiently expressing cynoCCR8. Here is the method:
as §1

For assay [6], the target named is T4, cynoCCR8. Description: flow cytometry titration on ExpiHEK293 cells transiently expressing cynoCCR8. The method, then:
as §1

Assay [7] has as its target T1, human CCR8. Description: flow cytometry on ExpiHEK293 cells transiently expressing human CCR8, 50 nM antibody. The method, then:
as §1

T4 sequence (O97665 other isoform, or with tags, fused parts or gaps): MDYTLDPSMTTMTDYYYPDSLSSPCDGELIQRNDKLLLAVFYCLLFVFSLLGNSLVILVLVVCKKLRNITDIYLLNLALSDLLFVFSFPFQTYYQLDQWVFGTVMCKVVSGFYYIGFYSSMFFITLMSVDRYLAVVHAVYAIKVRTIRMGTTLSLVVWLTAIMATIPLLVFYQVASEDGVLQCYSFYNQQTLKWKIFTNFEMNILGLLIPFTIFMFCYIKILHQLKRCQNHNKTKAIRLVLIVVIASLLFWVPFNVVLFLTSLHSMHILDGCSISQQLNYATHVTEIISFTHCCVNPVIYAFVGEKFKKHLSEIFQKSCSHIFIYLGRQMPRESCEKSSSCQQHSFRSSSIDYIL

B1: HFB11-10 parental antibody (non-humanized) in ADCC enhanced format (antibody, V domains shown)
VH: EVQLVETGGGLVQPKGSLKLSCAASGFRFNTNAMNWVRQAPGKDLEWVARIRSKSNNYATYYADSVKDRFTISRDDSQSMLYLQMNNVKTEDTAMYYCVRGSDNNYYYAMDYWGQGTSVTVSS
VL: DIVMTQAAPSVPVTPGESVSISCRSSKSLLHSNGNTYLYWFLQRPGQSPQLLIYRMSNLASGVPDRFSGSGSGTAFTLRISRVEAEDVGVYYCMQHLEYPFTFGSGTKLEIK
In the case of B1, the “ADCC NK killing of M300.19 cells expressing low copies of CCR8, EC50” value with human CCR8 [1] was 0.003 nM.

B2: HFB11-2 (antibody, human IgG1, V domains shown)
VH: EVQLVESGGGLVQPKGSLKLSCAASGFSFNTYAMNWVRQAPGKGLEWVARIRSKSNNYATYYADSVKDRFTISRDDSERMLYLQMNNLKTEDTAMYYCVRGGSYYSNHYFDYWGQGTTLTVSS
VL: DIVMTQAAPSVPVTPGESVSISCRSSKSLLHSNGNTYLYWFLQRPGQSPQLLIYQMSNLASGVPDRFSGSGSGTAFTLRISRVEAEDVGVYYCMQHLEYPFTFGAGTKLELK
Take B2: the binding result in the assay with human CCR4 is “no binding (tested: 50 nM)”; with human CCR8 [2], “binds”. Further, the EC50 (usually the concentration that produces a half-maximal response) with mouse CCR8 [3] is less than 1 nM.

B3: HFB11-10 (antibody, V domains shown)
VH: EVQLVETGGGLVQPKGSLKLSCAASGFRFNTNAMNWVRQAPGKDLEWVARIRSKSNNYATYYADSVKDRFTISRDDSQSMLYLQMNNVKTEDTAMYYCVRGSDNNYYYAMDYWGQGTSVTVSS
VL: DIVMTQAAPSVPVTPGESVSISCRSSKSLLHSNGNTYLYWFLQRPGQSPQLLIYRMSNLASGVPDRFSGSGSGTAFTLRISRVEAEDVGVYYCMQHLEYPFTFGSGTKLEIK
notes: Mouse variable domains; also called H11-10
Consider B3, for which the binding result in the assay with human CCR4, with mouse CCR8 [4] and with cynoCCR8 [5] was “no binding (tested: 50 nM)” throughout.

B4: HFB11-19 (antibody, human IgG1, V domains shown)
VH: QVQLQQSGAELVKPGASVKLSCKASGYTFTDYIIHWVKQRSGQGLEWIGWFSPRNNYVKYNERFTDKATLTADKSSNTVYMELSSLTSEDSAVYFCSRHGRNSIGFAYWGQGTLVTVSA
VL: DIVMTQAAPSVPVTPGESVSISCRSSKSLLNSNGNTYLYWFLQRPGQSPQLLIYRMSNLASGVPDRFSGSGSGTAFTLRISRVEAEDVGVYYCMQHLEYPYTFGGGTKLEIK
As for B4, the figures for the binding result with human CCR4 and with human CCR8 [2] were “no binding (tested: 50 nM)” and “binds”, respectively. Also, in the assay with cynoCCR8 [6], the EC50 is 1.8 nM.

B5: HFB11-3 (antibody, human IgG1, V domains shown)
VH: EVQLVESGGGLVQPQGSLKLSCAASGFSFNTYAMNWVRQAPGKGLQWVARIRSKSNNYATYYADSVKDRFTISRDDSESMLYLQMNNLKTEDAAMYYCVRGKDANYFYAMDYWGQGTSVTVSS
VL: DIVMTQAAPSVPVTPGESVSISCRSSKSLLHSNGNTYLYWFLQRPGQSPQLLIYRMSNLASGVPDRFSGSGSGTAFTLRISRVEAEDVGVYYCMQHLEYPFTFGAGTKLELK
Consider B5, for which the binding result with human CCR4, in the assay with mouse CCR8 [4] and in the assay with cynoCCR8 [5] was “no binding (tested: 50 nM)” each time.

B6: HFB11-5 (antibody, human IgG1, V domains shown)
VH: EVQLVESGGGLVQPRGSLKLSCTASGFSFNAYAMNWVRQAPGKGLEWVARIRTKSNNYATYYADSVKDRFTISRDDSESMLYLQMKNLKTEDTAMYYCVRGGYGNGGYYFDYWGQGTTLTVSS
VL: DIVMTQAAPSVTVTPGESASISCRSSKSLLHRNGNSYLYWFLQRPGQSPQLLIYRISNLASGVPDRFSGSGSGTAFTLRISRVEAEDVGVYYCMQHLEYPFTFGSGTKLEIK
In the case of B6, the binding result with human CCR4 is listed as “no binding (tested: 50 nM)”; with mouse CCR8 [4] it was “no binding (tested: 50 nM)”; with cynoCCR8 [5] it was “no binding (tested: 50 nM)”; in the assay with human CCR8 [7], “binds”.

B7: HFB11-8 (antibody, human IgG1, V domains shown)
VH: EVQLVETGGGLVQPKGSLKLSCAASGFRFNTNAMNWVRQAPGKGLEWVARIRSKSNNYATHYVDSVKDRFTVSRDDSQSMLYLQMNNLKAEDTAMYYCVRGSDNNYYYAMDYWGQGTSVTVSS
VL: DIVMTQAAPSVPVTPGESVSISCRSSKSLLHSNGNTYLYWFLQRPGQSPQLLIYRMSNLASGVPDRFSGSGSGTSFTLRISRVEVEDVGVYYCMQHLEYPFTFGSGTKLEIK
Turning to B7, the binding result is recorded as “no binding (tested: 50 nM)” with human CCR4, “no binding (tested: 50 nM)” with mouse CCR8 [4], “no binding (tested: 50 nM)” with cynoCCR8 [5] and “binds” with human CCR8 [7].

B8: HFB11-21 (antibody, human IgG1, V domains shown)
VH: QVQLQQPGAELVKPGASVKLSCKASGYTFISYWMHWVKQRPGRGLEWIGRIDPNSGKTKYNEKFKTKATLTVDKSSSTAYMHLNSLTSDDSAVYYCAREGWGDYWGQGTTLTVSS
VL: DIVLTQSPASLAVSLGQRATISCRASESVDNYGISFMHWYQQKPGQPPRLLIYRASNLASGIPARFSGSGSSTDFTLTINPVETDDIATYYCQQSNKDPRTFGGGTKLEIK
notes: also called HFB-21
On to B8, for which the binding result in the assay with human CCR4 is listed as “no binding (tested: 50 nM)”; with human CCR8 [2] it was “binds”. The EC50 with cynoCCR8 [6] stood at 15.8 nM; with mouse CCR8 [3], 53 nM.

These data come from US20250019451A1 (HIFIBIO, published 2025).
